The record followed here is patent US20240398942A1, “USE OF ANTI-CD40 ANTIBODY” (CHIA TAI TIANQING PHARMACEUTICAL GROUP CO., LTD., priority 2021, published 2024).

Data set [1] deals with mouse colon carcinoma MC38 cells. As to the kind of experiment: In vivo anti-tumor efficacy, colon carcinoma MC38 xenograft model. Conditions: for Tumor volume on day 0: baseline at grouping; for Tumor volume on day 0 / Tumor volume on day 14: mean ± standard error; for T/C: TRTV/CRTV, day 14 vs solvent; for TGI: day 14. The method, then:
The in vivo anti-tumor activity of antibody huC1H1-V2 was further determined in humanized CD40 transgenic mice (also referred to as hCD40 mice). Briefly, 1×10^6 mouse colon carcinoma MC38 cells (Shanghai Lanli Biotech, LTD., CO.) were injected subcutaneously on the right back of hCD40 mice. The tumor volume was measured using an electronic vernier caliper and calculated according to the formula (length×width^2)/2. When the mean tumor volume reached about 100 mm^3, 18 tumor-bearing mice were selected and randomly divided into 3 groups (6 mice per group), with the date of grouping designated as day 0. According to the administration regimen shown in Table 8, the mice were intravenously administered with the solvent (phosphate buffered saline, or PBS) or antibody huC1H1-V2 via tail veins since day 1.

Data set [2] deals with human B-cell lymphoma Ramos cells. As to the kind of experiment: Efficacy of anti-CD40 antibody and anlotinib, Ramos subcutaneous xenograft mouse model. In kind it is in vivo. The method, then:
Human B-cell lymphoma Ramos cells (purchased from the Cell Bank of the Chinese Academy of Sciences) were cultured in an RPMI1640 medium containing 10% of fetal bovine serum and penicillin-streptomycin. The cells were inoculated in a 37° C./5% CO2 incubator until the logarithmic growth phase and collected for grafting.
The mice used in this study were NOD-Scid mice (purchased from Shanghai Lingchang Biotechnology Co., Ltd.) aged about 6 weeks and bred in specific pathogen-free conditions in 12/12-hour light/dark cycles. The health status of the animals was monitored daily.
Each mouse was inoculated subcutaneously with 1×10^7 Ramos cells. When the tumor grew to 80-100 mm^3, the mice were divided into groups of 10 according to the tumor volume. The administration regimen is shown in Table 10, with the first dosing day designated as DO. Antibody huC1H1-V2 and IgG2 (Biointron, Cat. No. B107803) were both formulated to desired concentrations with normal saline, and anlotinib dihydrochloride was formulated at desired concentrations with distilled water. At the end of study (D14), the animals were sacrificed by CO2 anesthesia and dissected to give the tumors. The tumors were photographed.
The tumor diameters were measured twice weekly with a vernier caliper. Tumor volume (V)=½×a×b^2, wherein a and b denote length and width, respectively; T/C (%)=(T−T0)/(C−C0)×100, wherein T and C refer to the tumor volumes of the treatment group and the IgG2 control group on day 14, respectively, and TO and C0 refer to the tumor volumes of the treatment group and IgG2 control group on day 0, respectively; the tumor growth inhibition % (TGI %)=100−T/C (%). When the tumor regressed, the tumor growth inhibition % (TGI %)=100−(T−T0)/T0×100. If the tumor volume was smaller than the initial volume, i.e., T<T0 or C<C0, the outcome was defined as partial regression (PR); if the tumors completely disappeared, i.e., the outcome was defined as complete regression (CR).

Values joined by “and” are separate entries in the source; they are usually repeats but may differ in a detail not shown here. Equal values may be shown once.

B1: huC1H1-V2: humanized C1H1 anti-CD40 antibody, VH SEQ ID NO: 20 X1=S, VL SEQ ID NO: 24 X1=K X2=F, human IgG2/κ (antibody, V domains shown)
VH: EVQLVESGGGLVKPGGSLRLSCAASGFTFSNYGISWVRQAPGKGLEWVXSISSGGDNTYYPDNVKGRFTISRDNAKNSLYLQMNSLRAEDTAVYYCARAGEKAMDYWGQGTLVTVSS
VL: EIVLTQSPATLSLSPGERATLSCRASQTINNNLHWYQQKPGQAPRLLIXYASQSISGIPARFSGSGSGTDFTLTISSLEPEDFAVYXCQQFSSWPLTFGGGTKVEIK
modifications: not fully specified; variable positions X1=S; VL X1=K X2=F; IgG2/kappa constant; VH of huC1H1-V1 to huC1H1-V4; VARIANT 49 X can be A or S; VL of huC1H1-V1 to huC1H1-V4; VARIANT 49 X can be K or Y; VARIANT 87 X can be F or Y
For the molecule B1, the figures for the “Tumor volume on day 0” value in data set [1] (3 mg/kg i.v. Q2D × 7 doses) and in data set [1] (10 mg/kg i.v. Q2D × 7 doses) were 111 ± 5 mm^3 and 113 ± 8 mm^3, respectively. Moreover, the “Tumor volume on day 14” value was 1169 mm^3 and 1169 ± 217** mm^3 in data set [1] (3 mg/kg i.v. Q2D × 7 doses); 1446 mm^3 and 1446 ± 467* mm^3 in data set [1] (10 mg/kg i.v. Q2D × 7 doses). The T/C in data set [1] (3 mg/kg i.v. Q2D) came to 36%; in data set [1] (10 mg/kg i.v. Q2D), 44%. The figures for the inhibition of tumour growth (TGI) in data set [1] (3 mg/kg i.v. Q2D) and in data set [1] (10 mg/kg i.v. Q2D) were 64% and 56%, respectively. Also, the “Tolerability (weight loss or any symptoms)” value in data set [1] (3 and 10 mg/kg i.v. Q2D × 7 doses, tumor-bearing mice) was “well tolerated”. The “Mean tumor volume (mean ± SD) D 0” value in data set [2] (baseline, huC1H1-V2 0.5 mg/kg i.p. once every 2 days × 8, anlotinib dihydrochloride 1 mg/kg intragastric daily × 15) came to 89.3 ± 0.8 mm^3. Also, in data set [2] (huC1H1-V2 0.5 mg/kg i.p. once every 2 days × 8, anlotinib dihydrochloride 1 mg/kg intragastric daily × 15), the “Mean tumor volume (mean ± SD) D 14” value is given as 1546.7 ± 198.5 mm^3. For the same molecule, the “TGI D 14 (tumor growth inhibition rate)” value in data set [2] (huC1H1-V2 0.5 mg/kg i.p., anlotinib dihydrochloride 1 mg/kg intragastric) is 58%. Besides, the “Tolerability (symptoms such as weight loss)” value in data set [2] (huC1H1-V2 0.5 mg/kg i.p., anlotinib dihydrochloride 1 mg/kg intragastric, tumor-bearing mice) was “well tolerated”. For the same molecule, the “T/C D 14” value in data set [2] (vs IgG2 group, huC1H1-V2 0.5 mg/kg i.p., anlotinib dihydrochloride 1 mg/kg intragastric) came out at 42%.

The T/C is the result in the treated group divided by that in the control group, in per cent. The TGI is how far tumour growth fell short of that in controls. The low end stands for little slowing of growth, the high end for much slowing of growth.
